According to patent publication US20060292634A1:
Positions count from the first letter of the chain named. Like-named read-outs stand apart in the source and are kept apart here.

Tests used:
[1] = biological target: ELK (3% skim milk powder solution); test: ELISA, ELK-coated control well, ~50 ng iMab per well, anti-VSV-HRP; urea-purified
[2] = biological target: ELK (3% skim milk powder solution); test: ELISA, ELK-coated control well, ~5 ng iMab per well, anti-VSV-HRP; urea-purified
[3] = biological target: ELK (3% skim milk powder solution)
[4] = biological target: ELK (3% skim milk powder solution); test: ELISA, ELK-coated control well, ~20 ng iMab per well, anti-VSV-HRP; urea-purified
[5] = biological target: chicken lysozyme (chicken), P00698; test: ELISA vs. lysozyme, iMab dilution 1:10, before pH 4.8 precipitation; settings: remark: other sources report otherwise
Sequence of chicken lysozyme (chicken), P00698 (P00698 19-147 limits assumed): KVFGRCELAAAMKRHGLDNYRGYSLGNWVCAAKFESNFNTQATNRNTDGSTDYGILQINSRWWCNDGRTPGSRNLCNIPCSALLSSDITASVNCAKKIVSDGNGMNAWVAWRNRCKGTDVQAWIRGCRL

[6] = biological target: chicken lysozyme (chicken), P00698; test: ELISA vs. lysozyme, iMab dilution 1:100, before pH 4.8 precipitation; settings: remark: other sources report otherwise
[7] = biological target: chicken lysozyme (chicken), P00698; test: ELISA vs. lysozyme, iMab dilution 1:1000, before pH 4.8 precipitation; settings: remark: other sources report otherwise
[8] = biological target: chicken lysozyme (chicken), P00698; test: ELISA vs. lysozyme, iMab dilution 1:10,000, before pH 4.8 precipitation; settings: remark: other sources report otherwise
[9] = biological target: ELK (3% skim milk powder solution); test: ELISA, ELK-coated control well, ~50 ng iMab per well, anti-VSV-HRP; heat (60 °C) purified
[10] = biological target: chicken lysozyme (chicken), P00698; test: ELISA vs. lysozyme, iMab dilution 1:10, after precipitation at pH 4.8 and redissolving; settings: remark: other sources report otherwise
[11] = biological target: chicken lysozyme (chicken), P00698; test: ELISA vs. lysozyme, iMab dilution 1:100, after precipitation at pH 4.8 and redissolving; settings: remark: other sources report otherwise
[12] = biological target: chicken lysozyme (chicken), P00698; test: ELISA vs. lysozyme, iMab dilution 1:1000, after precipitation at pH 4.8 and redissolving; settings: remark: other sources report otherwise
[13] = biological target: chicken lysozyme (chicken), P00698; test: ELISA, lysozyme-coated well (100 µg/ml), ~50 ng iMab per well, anti-VSV-HRP; urea-purified; settings: remark: other sources report otherwise
[14] = biological target: chicken lysozyme (chicken), P00698; test: ELISA vs. lysozyme, iMab dilution 1:10,000, after precipitation at pH 4.8 and redissolving; settings: remark: other sources report otherwise
[15] = biological target: chicken lysozyme (chicken), P00698; test: ELISA, lysozyme-coated well (100 µg/ml), ~50 ng iMab per well, anti-VSV-HRP; heat (60 °C) purified; settings: remark: other sources report otherwise

B1: iMab122 (designed binder, not shown: small tags and cut ends)
chain: NVKLVEKGGNFVENDDDLKLTCRASGRTFSSRTMGWFRQAPNDDSTNVATIRWNGGSTYYTNYGDSVKERFDIRVDQASNTVTLSMDDLQPEDSAEYNCAGTDIGDGWSGRYDYRGQGTDVTVSS
Absorbtion (450 nm) [1]: 0.051 A450

B2: iMab1202 (designed binder, not shown: small tags and cut ends)
chain: IVKLVMEKRGNFENGQDCKLTIRASGYTIGPACDGFFCQFPSDDSFSTEDNMGGGITVNDAMKPQFDIRRDNAKGTWTLSMDFQPEGIYEMQCAADSTIYASYYECGHGLSTGGYGYDNPVRLGGFDVDVPDV
Absorbtion (450 nm) [1]: 0.041 A450

B3: iMab1200 (designed binder)
chain: HGLPMEKRGNFIVGQNCSLTCPASGYTIGPQCVFNCYFNSALAFSTENMGEWTLDMVFSDAGIYTMCAADSTIYASYYECGHGLSTGGYGYNPVSLGSFVVDSP
Absorbtion (450 nm) [2]: 0.04 A450

B4: iMab1602 (designed binder, not shown: small tags and cut ends)
chain: AVKPVIGSKAPNFGENGDVKTIDRASGYTIGPTCGGVFFQGPTDDSTNVATINMGGGITYYGDSVKETFDIRRDNAKSTRTESYDDNQPEGLTEVKCAADSTIYASYYECGHGLSTGGYGYDVSSRLYGYDILVGTQ
Absorbtion (450 nm) [1]: 0.043 A450

B5: iMab701 (designed binder)
chain: MASTITCEASGYTIGPACVAFDTTLGNNMGTYSAPLTSTTLGVATVTCAADSTIYASYYECGHGLSTGGYGYAAFSVPSVTVNFTA
Absorbtion (450 nm) [3]: 0.069 A450

B6: iMab101 (designed binder, not shown: small tags and cut ends)
chain: VKLVEKGGNFVENDDDLKLTCRASGYTIGPYCMGWFRQAPNDDSTNVATINMGTVTLSMDDLQPEDSAEYNCAADSTIYASYYECGHGLSTGGYGYDSHYRGQGTDVTVSS
Absorbtion (450 nm) [4]: 0.043 A450

B7: iMab111 (designed binder, not shown: small tags and cut ends)
chain: NVKLVCKGGNFVENDDDLKLTCRAEGYTIGPYCMGWFRQAPNDDSTNVATINMGGGITYYGDSVKERFDIRRDNASNTVTLSMDDLQPEDSAEYNCAGDSTIYASYYECGHGLSTGGYGYDSHYRCQGTDVTVSS
Absorbtion (450 nm) [1]: 0.043 A450

B8: iMab100 (designed binder, not shown: small tags and cut ends)
chain: B7 chain with C6E, C126G
Absorbtion (450 nm) [1]: 0.04 A450
Signal on Elisa [5]: 0.36
Signal on Elisa [6]: 0.228
Signal on Elisa [7]: 0.128
Signal on Elisa [8]: 0.059
Absorbtion (450 nm) [9]: 0.041 A450
Signal on Elisa [10]: 0.39
Signal on Elisa [11]: 0.263
Signal on Elisa [12]: 0.169
Absorbtion (450 nm) [13]: 0.494 A450
Signal on Elisa [14]: 0.059
Absorbtion (450 nm) [15]: 0.369 A450

B9: iMab1302 (designed binder, not shown: small tags and cut ends)
chain: VVKVVIKPSQNFIENGEDKKFTCRASGYTIGPKCIGWFSQNPEDDSTNVATINMGGGITYYGDSVKERFDIRRDNAKDTSTLSIDDAQPEDAGIYKCAADSTIYASYYECGHGLSTGGYGYDSEATVGVDIFVKLM
Absorbtion (450 nm) [1]: 0.045 A450

B10: iMab1300 (designed binder, not shown: small tags and cut ends)
chain: LQVDIKPSQGEISVGESKFFLCQASGYTIGPCISWFSPNGEKLNMGSSTLTIYNANIDDAGIYKCAADSTIYASYYECGHGLSTGGYGYQSEATVNVKIFQ
Absorbtion (450 nm) [1]: 0.041 A450
